Here are results for one substance from article PMC5033319.

This data set in a line: recombinant expression in Sf9, not detailed. As to conditions: glycan lost; control: initial domain III preparation, sites intact.

Consider “EGFR domain III (EGFRD3): N328D and N420D”, for which the “other: solubility” value is given as “increases”.
